Publication PMC2704562 (Biochimica et biophysica acta, 2009)

Assays:
SEC = molecular target: the molecule itself; assay: SEC
[1] = substrate: Nc1ncnc2c1ncn2[C@@H]1O[C@H](COP(=O)(O)OP(=O)(O)OP(=O)(O)O)[C@@H](O)[C@H]1O; assay: radiometric S-adenosylmethionine formation assay, Michaelis-Menten fit; type: biochemical, Methanocaldococcus jannaschii; conditions: 0.5 mM [methyl-14C]-L-methionine, ATP 0.05-2.5 mM, 55 °C
AUC = molecular target: the molecule itself; assay: AUC

Row | Protein | stoichiometry N (SEC) | Km [1] [mM] | kcat [1] [s⁻¹] | stoichiometry N (AUC)
1 | Methanococcus jannaschii methionine adenosyltransferase, wild type (enzyme, UniProt Q58605 1-406, looked up) MRNIIVKKLDVEPIEERPTEIVERKGLGHPDSICDGIAESVSRALCKMYMEKFGTILHHNTDQVELVGGHAYPKFGGGVMVSPIYILLSGRATMEILDKEKNEVIKLPVGTTAVKAAKEYLKKVLRNVDVDKDVIIDCRIGQGSMDLVDVFERQKNEVPLANDTSFGVGYAPLSTTERLVLETERFLNSDELKNEIPAVGEDIKVMGLREGKKITLTIAMAVVDRYVKNIEEYKEVIEKVRKKVEDLAKKIADGYEVEIHINTADDYERESVYLTVTGTSAEMGDDGSVGRGNRVNGLITPFRPMSMEAASGKNPVNHVGKIYNILANLIANDIAKLEGVKECYVRILSQIGKPINEPKALDIEIITEDSYDIKDIEPKAKEIANKWLDNIMEVQKMIVEGKVTTF | 2 | 0.19 ± 0.03 | 1.46 ± 0.05 | 
2 | Mj-MAT W387F-Y170W (enzyme, Methanococcus jannaschii, UniProt Q58605 1-406, looked up) MRNIIVKKLDVEPIEERPTEIVERKGLGHPDSICDGIAESVSRALCKMYMEKFGTILHHNTDQVELVGGHAYPKFGGGVMVSPIYILLSGRATMEILDKEKNEVIKLPVGTTAVKAAKEYLKKVLRNVDVDKDVIIDCRIGQGSMDLVDVFERQKNEVPLANDTSFGVGWAPLSTTERLVLETERFLNSDELKNEIPAVGEDIKVMGLREGKKITLTIAMAVVDRYVKNIEEYKEVIEKVRKKVEDLAKKIADGYEVEIHINTADDYERESVYLTVTGTSAEMGDDGSVGRGNRVNGLITPFRPMSMEAASGKNPVNHVGKIYNILANLIANDIAKLEGVKECYVRILSQIGKPINEPKALDIEIITEDSYDIKDIEPKAKEIANKFLDNIMEVQKMIVEGKVTTF |  | 0.10 ± 0.02 | 2.39 ± 0.03 | 2
